Experiments:
Design in all cases: key to the marks not given beside the values
[1] = tested on: T1, AKDVDQGSFCTSLVGTLQY peptide (SEQ ID NO:13)
T1 sequence: AKDVDQGSFCTSLVGTLQY

[2] = tested on: T2, AKDVDQGSLCTSLVGTLQY peptide (SEQ ID NO:12)
T2 sequence: AKDVDQGSLCTSLVGTLQY

[3] = tested on: T3, AKDVDQGSVCTSFVGTLQY peptide (SEQ ID NO:11)
T3 sequence: AKDVDQGSVCTSFVGTLQY

[4] = tested on: T4, DQGSFCTSL peptide (SEQ ID NO:7)
T4 sequence: DQGSFCTSL

[5] = tested on: T5, GGSFCTSL peptide (SEQ ID NO:6)
T5 sequence: GGSFCTSL

[6] = tested on: T6, GGSLCTSF peptide (SEQ ID NO:4)
T6 sequence: GGSLCTSF

[7] = tested on: T7, GGSLMTSF peptide (SEQ ID NO:5)
T7 sequence: GGSLMTSF

[8] = tested on: T8, VDQGSIAASFVGT peptide (SEQ ID NO:10)
T8 sequence: VDQGSIAASFVGT

[9] = tested on: T9, VDQGSLAASFVGT peptide (SEQ ID NO:8)
T9 sequence: VDQGSLAASFVGT

[10] = tested on: T10, VDQGSMAASLVGT peptide (SEQ ID NO:9)
T10 sequence: VDQGSMAASLVGT

Measured: T2K substrate specificity

T2K kinase
+++: all assays above

— US6365366
